According to patent US20170037110A1 (IMMATICS BIOTECHNOLOGIES, published 2017):

Biological target: T1, HLA-A*02:01 (human)
T1 construct: monomers captured on streptavidin plates; also called MHC class I
Test: UV peptide exchange ELISA
Summary of the method: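 Read-out is an ELISA on the UV-exchange reaction: monomers, diluted 100-fold, are captured on streptavidin and the β2m light chain is detected with 2 μg/ml HRP antibody and TMB at 450 nm.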

Row | Binder | peptide exchange yield [%]
1 | ILAPTVMMI | 50 to 75
2 | KLLNKIYEA | ≥ 75
3 | SLLSVSHAL | 50 to 75
4 | NLIGKIENV | 50 to 75
5 | YILPTETIYV | ≥ 75
6 | YLLDDGTLVV | ≥ 75
7 | VLMDRLPSLL | ≥ 75
8 | KMIETDILQKV | ≥ 75
9 | SLFIGEKAVLL | 50 to 75
10 | YLLEQIKLIEV | ≥ 75
11 | SLSELEALM | 50 to 75
12 | ALMYESEKVGV | 50 to 75
13 | KMSELRVTL | 50 to 75
14 | KLYEGIPVLL | ≥ 75
15 | ALLDPEVLSIFV | 50 to 75
16 | TLLQIIETV | 50 to 75
17 | ALAAPDIVPAL | 50 to 75
18 | ALAELYEDEV | 50 to 75
19 | KLYEAVPQL | 50 to 75
20 | ILIDSIYKV | 50 to 75
21 | FLSSVTYNL | 50 to 75
22 | GLLEVMVNL | 50 to 75
23 | YLLPSGGSVTL | 20 to 50
24 | RLYSGISGLEL | 50 to 75

Row | Binder | peptide exchange yield [%]
25 | SLMELPRGLFL | ≥ 75
26 | SLLELDGINL | 50 to 75
27 | FLQGYQLHL | ≥ 75
28 | VLIDEVESL | 50 to 75
29 | FLLAHGLGFLL | ≥ 75
30 | FLIEPEHVNTV | 20 to 50
31 | SILDRDDIFV | 50 to 75
32 | ALWETEVYI | 50 to 75
33 | LLLPDQPPYHL | 50 to 75
34 | YLVEDIQHI | 50 to 75
35 | YAAPGGLIGV | 20 to 50
36 | SLDSTLHAV | 50 to 75
37 | IMEDIILTL | 50 to 75
38 | FLDENIGGVAV | 50 to 75
39 | GILARIASV | 50 to 75
40 | YLYNEGLSV | 50 to 75
41 | TLLAEALVTV | 50 to 75
42 | FLFSQLQYL | 20 to 50
43 | TLAELQPPVQL | 50 to 75
44 | FLLVGDLMAV | 50 to 75
45 | SAFPFPVTV | 50 to 75
46 | ALPEAPAPLLPHIT | 20 to 50
47 | IMQDFPAEIFL | ≥ 75
48 | LLAPTPYIIGV | 50 to 75

Row | Binder | peptide exchange yield [%]
49 | FQLDPSSGVLVTV | 50 to 75
50 | SLLDLETLSL | ≥ 75
51 | ILVEADGAWVV | ≥ 75
52 | VTFGEKLLGV | 20 to 50
53 | FLYDNLVESL | 20 to 50
54 | YLLNDASLISV | 50 to 75
55 | FLFPHSVLV | 50 to 75
56 | LLPDLEFYV | ≥ 75
57 | ALQDRVPLA | 50 to 75
58 | NIFDLQIYV | 50 to 75
59 | GLLDYPVGV | 50 to 75
60 | ALWKQLLEL | 50 to 75
61 | VLLDVSAGQLLM | ≥ 75
62 | VLPPDTDPA | 20 to 50
63 | YLIPFTGIVGL | 20 to 50
64 | KLLEGQVIQL | 50 to 75
65 | SLLEQGKEPWMV | 50 to 75
66 | VLFDSESIGIYV | 50 to 75
67 | RLLGEEVVRVLQA | 50 to 75
68 | SLFSSLEPQIQPV | 50 to 75
69 | YLPAVFEEV | 50 to 75
70 | RLLPPGAVVAV | 50 to 75

Biological target: T2, HLA-A*02:01 (human)
T2 construct: Construct limits and biotin tag are not described
Test: pMHC complex coated on artificial APCs and used as fluorescent multimer A*02/SeqID No 662

Row | Binder | binding result
71 | KIQEILTQV (also called IGF2BP3 peptide) [SeqID No 662 peptide (KIQEILTQV)] | binds
